Test results published in CN112279916A (DINGFU BIOTARGET CO LTD, dated 2021).

Target: T1, hIL13RA1-EGFP (细胞表面hIL13RA1, HEK293细胞) (human, UniProt P78552 22-427)
T1 construct: also called 人IL13RA1; not shown: enhanced green fluorescent protein EGFP, UniProt C5MKY7
T1 sequence (looked up): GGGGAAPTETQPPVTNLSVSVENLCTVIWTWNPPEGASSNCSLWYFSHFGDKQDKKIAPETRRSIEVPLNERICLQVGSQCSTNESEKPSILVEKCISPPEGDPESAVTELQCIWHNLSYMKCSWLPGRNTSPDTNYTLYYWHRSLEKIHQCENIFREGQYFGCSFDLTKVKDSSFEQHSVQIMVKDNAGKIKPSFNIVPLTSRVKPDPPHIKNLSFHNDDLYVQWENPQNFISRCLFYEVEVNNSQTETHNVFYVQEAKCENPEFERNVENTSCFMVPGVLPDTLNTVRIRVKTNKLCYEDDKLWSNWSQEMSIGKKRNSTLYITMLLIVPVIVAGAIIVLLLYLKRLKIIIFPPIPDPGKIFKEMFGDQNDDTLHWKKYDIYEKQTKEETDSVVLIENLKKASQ
Test: FACS on hIL13RA1-EGFP HEK293 cells, 2 μg antibody, secondary antibody anti-hIg-PE

binding result: binds
B1: anti-hIL13RA1 scFv抗体 (Fc fusion)
scFv: QVQLQQSGPGLVKPSQTLLITCAISGDSVSSNSAAWNWIRQSPSGSLEWLGRTYYRSKWYSHYAVSVTGRMTINSDSSKNQFSLQLDSVTPEDMAIYYCAREEVAGRGSFDFWGQGTLVTVSSGILGSGGGGSGGGGSGGGGSDIQLTQSPSFLSASVGDRVTITCRASQSISKNLVWYQQKPGKAPKLLIYSASTLQSGVPSRFSGSGSGTDFTLTISSLQPEDCALYFCQQAHSFPVTFGQGTRLEIK
notes: also called anti-IL13RA1 35#; IL13RA1抗体; not shown: human IgG1-Fc domain, UniProt P01857 residues 104-330
